{"source": "paper PMC9841416", "about": "“The recognition of structured elements by a conserved groove distant from domains associated with catalysis is an essential determinant of RNase E”", "molecular_target": "NTH-RNase E D346N (Escherichia coli (K12, P21513-1 in …, UniProt P21513 1-529, D346N))", "assay": "EMSA; 15 mM CaCl2; 25 mM bis-Tris propane pH 8.3, 100 mM KCl, 15 mM CaCl2, 0.1% (v/v) Triton X-100, 1 mM DTT, 20% (v/v) glycerol, 37 C 20 min; 1% agarose gel in 1x TBE", "details": "protein: recombinant; tags: N-terminal oligohistidine; chain copies: 4; single-stranded"}
{"binder": "GAGACAGUAUUUG (ssRNA, 5'-monophosphate)", "note": "[5'-monophosphorylated LU13]", "values": [{"measurement": "Kd", "result": 56, "unit": "nM"}]}
